Experimental findings from publication PMC4712673 are described below.

Read-outs that look alike come from different tables or passages of the source.

What all share (test): EMSA
On the technique in general: In EMSA bound probe runs differently from free probe, usually more slowly.

The target in data set [1] is T1, Cus2p WT (Saccharomyces cerevisiae, UniProt P53830 1-285).
T1 sequence: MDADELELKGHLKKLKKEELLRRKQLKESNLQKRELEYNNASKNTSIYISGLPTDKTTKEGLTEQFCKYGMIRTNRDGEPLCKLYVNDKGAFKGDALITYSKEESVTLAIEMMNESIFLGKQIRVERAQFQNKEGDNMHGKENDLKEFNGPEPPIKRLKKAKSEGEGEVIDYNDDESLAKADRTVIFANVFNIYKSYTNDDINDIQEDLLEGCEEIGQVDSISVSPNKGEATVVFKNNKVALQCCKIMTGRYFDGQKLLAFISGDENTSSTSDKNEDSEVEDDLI

A further data set addresses T2, Cus2p Y48D (Saccharomyces cerevisiae, UniProt P53830 1-285, Y48D).
T2 sequence: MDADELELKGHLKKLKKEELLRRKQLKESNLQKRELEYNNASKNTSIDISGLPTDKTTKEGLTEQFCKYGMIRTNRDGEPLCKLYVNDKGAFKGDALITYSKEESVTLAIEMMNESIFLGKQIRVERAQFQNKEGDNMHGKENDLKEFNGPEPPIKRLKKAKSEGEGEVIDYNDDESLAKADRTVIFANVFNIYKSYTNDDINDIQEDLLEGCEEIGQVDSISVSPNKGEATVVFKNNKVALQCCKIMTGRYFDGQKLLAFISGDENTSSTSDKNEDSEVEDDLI

Data set [2] addresses T1, Cus2p WT. This is another data set of the same source.
For data set [3], the target named is T1, Cus2p WT. The source holds these as a separate data set.

B1: stem IIa-stabilized U2 core RNA (structured_RNA)
RNA: GUAGUAUCUGUUCUUUGCGGUGUAACAACCGCAAUGACCUCAAUGAGGCUCAUUACCUUUUAAAUACACAUUUUUUGG
For the molecule B1, the binding result with Cus2p WT [1] is listed as “binds”.

B2: stem IIc-stabilized U2 core RNA (structured_RNA)
RNA: GUAGUAUCUGUUCUUUUCAAUGUAACAACUGAAAUGACCUCAAUGAGGCUCAUUACCUUUUCAGUUGUUACAAUACACAUUUUUUGG
B2: the binding result with Cus2p Y48D and with Cus2p WT [2] was “binds” throughout.

B3: G53A U2 core RNA (structured_RNA)
RNA: GUAGUAUCUGUUCUUUUCAAUGUAACAACUGAAAUGACCUCAAUGAGGCUCAUUACCUUUUAAUUUGUUACAAUACACAUUUUUUGG
As to B3, the binding result with Cus2p WT [3] is “binds”.
